Reference: PMC11263391, “Molecular insights into degron recognition by CRL5^ASB7 ubiquitin ligase” (Nature Communications, 2024)

Molecular target: ASB7-Elongin B-Elongin C ternary complex (human), Q9H672
Experiment: ITC; peptide (0.8–4 mM) titrated into the ASB7 complex (39–156 µM); 16 °C; 20 mM Tris-HCl pH 7.5, 150 mM NaCl; MicroCal PEAQ-ITC

ASB7-Elongin B-Elongin C ternary complex (human), Q9H672, sequence (Q9H672 11-318, chain 1 of 3): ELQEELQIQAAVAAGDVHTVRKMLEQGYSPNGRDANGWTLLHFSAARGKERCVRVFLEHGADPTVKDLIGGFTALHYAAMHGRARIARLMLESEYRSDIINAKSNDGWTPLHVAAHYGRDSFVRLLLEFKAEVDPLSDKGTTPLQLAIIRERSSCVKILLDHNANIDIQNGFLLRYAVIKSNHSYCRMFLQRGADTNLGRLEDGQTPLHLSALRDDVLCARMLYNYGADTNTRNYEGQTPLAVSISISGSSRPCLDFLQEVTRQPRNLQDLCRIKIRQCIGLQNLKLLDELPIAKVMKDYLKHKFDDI
ASB7-Elongin B-Elongin C ternary complex (human), Q9H672, sequence (Q15370 1-104, chain 2 of 3, further chain): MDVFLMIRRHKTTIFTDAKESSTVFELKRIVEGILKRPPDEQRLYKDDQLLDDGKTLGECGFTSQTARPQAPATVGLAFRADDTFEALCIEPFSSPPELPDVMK
ASB7-Elongin B-Elongin C ternary complex (human), Q9H672, sequence (Q15369 17-112, chain 3 of 3, further chain): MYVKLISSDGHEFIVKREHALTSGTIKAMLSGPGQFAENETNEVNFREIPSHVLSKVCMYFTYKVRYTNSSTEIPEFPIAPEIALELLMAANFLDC

Row | Kd | fold decrease in binding affinity against the LZTS1-degron | Binder
1 | 3.8 µM |  | ELEKAKQECQDLKGKLEKCCRH (modifications not checked) [CEP152-degron 23-residue peptide]
2 |  | 6 fold | ELESLMKEQDLLETKLR (modifications not checked) [LZTS1 17-residue degron]
